This is an account of results in the DeepSol protein solubility set.

The nature of this series: soluble on expression in E. coli; label from the status in PepcDB or PDB records.
Turning to “MSLAFDETRLPDDVERGAQGGPRFKTTVITLSSGFERRNSDWAQTRGEWDVGYGMQDATDLEDVIAFFYARNGRARGFRFKDWTDYVLSRQAIGTTDGSNATFQLFKRYTSGSTSFDRILSKIVTATTQVWVNNVEAPEGGASTSFAIDTTTGMITLGSSLAAQSGTTVEAACQFDVPVRFGSDALDITAEWADAVGAPNIPIVEIRVEGHHHHHH”, the “soluble on expression in E. coli” value is reported as “soluble”. “MSLAFGNYPFLTVSEITYTNPINSNIVSEDFDVEIGEATNGTVTSRVGIRVKDITRHIGIFGSTGSGKTNTAILLASQLNAKGVKVIILDWHGEYDQLLKNGFRIYDEKTIVKINPLHLIDLDVEDTVDIIGDVLQLTDPQRFLLYTILLKLKSYRKFSINQLLEVINSIEDTSYWMRDVKYALLRKIFILFTPTASKLFSTVDETSLNDFPDYLTSSTIINLGFISNLKLRKLYSLFLIKLIVESYIREGHHHHHH”: the “soluble on expression in E. coli” value is reported as “soluble”. With “MSLAIIEEARSGQITDEMKEISKLEGIPVEKVRNRISECKIILIRNAKYPSKKLVPIGKGLTTKVNINIGTSDEVVNLQMELEKVKVANRWGDTLMDLSTGGDLDDIRREIIRASELPVGTVPVYQVFIESFKKKSGGAYFTEDELLSTVEKHLKDGVAFMTIHAGITKELAIRALKSNRIIPIVSRGGDMIAGWMIHNNSENPYRKHWGYLLEMFKEYDAVISLGDALRPGATGDAHDEFQVGELLETARLVKSALKEGVQVMVEGPGHVPLNEIAWDVKLMKKLTGGVPYYVLGPLPIDVGAPYDHIASAIGAAISSAAGADLLCYLTPAEHLGLPTVKQVEEGAIAYRIAAHAGDVVKLGRRVRKWDDEVSYYRGKLEWDNMISRLIDPQRAYQVYTQFGIPKVKACTMCGGYCPMMWAMDQVRKIGSSSSLEGHHHHHH” the entry was “soluble”; with “MSLAIPTRNEVSDDLKWDLSRVFKDDQEWEQEYNRVAIEIKNLGRFKGNLAKSGQDLYEGITEILSVNRRLEKVYVYATMSSDVDTSNTHYLGLVAKAQSLANQMSAAISFVDPEILSIPEETLAKFMQDEPRLKEYQHRLEQITKKRPHTLPASEEKIIAAAGDAMGTSANTFNVLTNSDMEYGYVQDEDGEMVQLSDGLYSLLIQSQDRNVRKNAFDVMYASYGQFENSLASTLSGEVKAHNFNAQVHKYNSAREAALSENGVPTAVYDTLVKEVNSHLNLLHRYVSLRKKILGLSDLQMYDMYVPLTGEPSLSYNFEEAKNEARRALAPLGKDYLEHVDYIFNNRVIDVVESQNKVTGAYSGGSYDTDPYELLNWEDNLDSLYTLVHETGHSVHSWYTRNTQPYVYGDYPIFVAEIASTTNENILTEYFLDKITDPKTRAFVLNHYLDSFKGTLFRQTQFAEFEQFIHEADANGQPLTADVLDEFYGNLNQRYYGDSVEPGGEIAKEWARIPHFYYNFYVYQYATGFAAATALANNVVHGTDKERTAYINFLKAGSSDYPTEIMKRAGVDMTKADYLKDAFNTFEERLNEFEKIVDELKTEGHHHHHH”, “soluble”; with “MSLAKIVFCILDGLGDTTHTLPDGRKGTCLEMAKRPTLDAIAKAGTVGLNDSVSPGYPCGSDTAHLSLFGYPPFTYYNGRGAFEALGGGMDMEPGSIAFKSNFSTMYGECVKYRRCDRHFEVEGPILCKDLDGIKIPEFPEVKVSVVYATEHRCAVKILAPGLSDKIAGTDPIHDDLDLIKSYPLDDSPEAAYTAKVVNALSDTFRKALENHPINIERRKQGKEVANVILLRGPGMRLSCQPFGERHNIKAFLIAPTAIIAGLGISVGLPVIKVKGATGDMDSNFNAKAIAAAQELDGDKYDMGIIHMKGIDDAAHDGKIAVKTELIERADKAIHLLIEKLAELEEKNGDRFIVAVTADHSTSCTWKDHCFEPVPFIVAEVAKVAQELGIKHVDQSKKPELVPTDSVHEFTETAACKGSLGRFCGAQMMNLLFHFAGRKQEEGHHHHHH”, “soluble”.

Turning to “MSLAKNVNASVEETFKKSGIPVKVDKSNGQVTFGEKTMFDVDSDVLKPEAKEMLKMFVPKYIETIYKDYGDYISKIVIEGHTDDVGSYIYNLDLSQRRAYSVAKFIVGDEIGDYKYKDKVTKHIIAIGRSKAELIKNGDNSVNRDASRRVELKYEININQNKEGHHHHHH”, the “soluble on expression in E. coli” value is “soluble”. In the case of “MSLANKKFWLITDTHFDDEFTVGSSSKCLAIDCCHSNSIPRKGQENFISGSCGDYNCYSPLNVSESAFDYIAKHQSESKLIFWLMDVVPGDVITQSKETNKKRIQLQVEALKKRLSGFRIYPVPGNHDYWLSSNWQYPPQNQWMLDFMGDLFKDWLSPNALEQFKKGGFYTELIDSGVRIIALYLAYVDVYGSHCNEYVENDPAGMMKWFNETLELARKNGERVILLSHEGVGLKESGTIDVVPKFNEDFSYAMNEYSDIIISHLSGHSHFNSFRVLPNITKPTFHIIMNPAMTSFKNLNPRFRLYEYDRKNIKDYTNYMLNINKCNKNNKFEWEIEYNAKELFGIEEYTTKNLKEFIEQLAVDDELWTKFDSHYSTINRKCEGNCRKDLLCSIHCMKESEFITCINQKEGHHHHHH”, the “soluble on expression in E. coli” value is “not soluble”. As to “MSLANSKVYAIPTTCNSGIFVGRAENLDAIDIMKDPNYTGKVSIVGFDVANCSDNNSDDNHKNHNETAIGNGPTPKWHNSNYTSDFLNVAQQGKDTMISATLPNPVPSQEIGSVGQIAYGSQISDADFKELASVDIKNINQSSPYFVRNYGQMVSKLGDIIEKYHTELMDSNGNATIYLRPFHEMNSPWLWWGFKNQDDFKNLWIHLHNYLVNDRKFTWLKFCFAASAGDPSLDPAHVKGANSYYPGNNYVDTVALDGYSDDPSNDSGIKKQYAELTATGKPFGFAELGAKVDGDFVNVPNERTQQNVETRPFNYQKWSDAIQKYYSNAKYCIVFGGAYDPRNNLHGTSLFSNEGHHHHHH”, the “soluble on expression in E. coli” value was “soluble”.

In the case of “MSLAQNSSIDYPSYQKRNTDALEISRIVRNDTATILYMDAYSRPNYWIRLASELSLHGVQSGKKYPVIRSQGFELDKQVYMPASGNVTFTLQFAPIDPQDRTIDFVESNNEEDFRIEGICLDASVPKKKVHCHLAGKMANRPQTSRLILIESNKNTRGTPWISIPVRNGVFEYDFYTDHEKAYELICWDDLLNGCWYPVTFFAENGTVSFTISAIDARPPYRIETLNSLTTALRLFEAEGKDKFSFDELNARRDTLEKYGRFESEAMQALWKKFDQVKDNPEERNKLFRERDRLEESGEAFTKEAKALIKEREQLFRKKVIWETEQASQHPSLVGLFILKMKVENARKDEDVTPYLEAFQKVYASRYPEHPYTREMQMFIDNNQPKTGNRFIDFSAPDLNGNMVQLSEQIRGKVALIDLWASWCGPCRTTSKQLIPIYEKYKDRGFTVIGVAREQNSDIRMREAIRKDGYPWLNLIELNDVQQIWSKYRIPNAAGGTFLVNAQGIILAVNPTAEEVERILQKELEGHHHHHH”, the “soluble on expression in E. coli” value is “soluble”. On to “MSLAQQKPVEKVDSDGVYLMPDQMPEFPGGMQAMMKFLTTNIKYPVEAQKKGVSGRVIVQFVIMEDGTLDQAKVVRGVDPLLDEEALRVVKLMPKWKPGMDRGEAVKVRFTAPIMFNLSRSEAQRPTFPELVVPIGQEVENRSLQGVWQSCVAQPGEHGYKILLLPVLKIVSPDQTFMNIMTAGMNGRSNAIIYCQGEYSLPSDGTYVEMVEKSVDPVFIQGVKNEISVERLHDNLIKLSFTVPGQGRKVTEYWFRAPSPDVKIMAEGHHHHHH”, for which the “soluble on expression in E. coli” value is listed as “soluble”. As for “MSLAQTLGYIYRKRMIDSIEEFSRQIETTYQINKFWDNFEQIREVQNTKIDKVKEKQQKLMERLSSLYDKVEGQKEMGSMNNSNISAAESEWFAEIKRSVIEFNSYVRKASTNHQELEFIKEQQAQIANQKPDISSENGKEWNDLQQLLREGHHHHHH”, the “soluble on expression in E. coli” value is “soluble”.

On to “MSLARELRKGKSNAIGMLFGDPSSGFQSRLHHAALQACNDAGYFLTAGLFREEEDNWDEQLTQFLNRTSIEKMILVPPLCGSTALHDRLIEQGASFVLVSPSRAVAVAHAVCMDDRRAAREITEHLLGLGHRRIAHITGPSDHAATRLRREGFEDAMRAVGDGALRPDWIRPGLFRFKPALECARQILTGPDRPTAIFAANDEMAAAVCFAANSLGLRVPDDLSVVGFDDVAIATTMWPPLTTVAQPYAQMARESVRLLTEVGPPGDAGQAAEKVTIDHALKVRQSTAAEGHHHHHH”, for which the “soluble on expression in E. coli” value is “soluble”. With “MSLARIIVVTSGKGGVGKTTSSAAIATGLAQKGKKTVVIDFDIGLRNLDLIMGCERRVVYDFVNVIQGDATLNQALIKDKRTENLYILPASQTRDKDALTREGVAKVLDDLKAMDFEFIVCDSPAGIETGALMALYFADEAIITTNPEVSSVRDSDRILGILASKSRRAENGEEPIKEHLLLTRYNPGRVSRGDMLSMEDVLEILRIKLVGVIPEDQSVLRASNQGEPVILDINADAGKAYADTVERLLGEERPFRFIEEEKKGFLKRLFGGEGHHHHHH” the entry was “soluble”. With “MSLARQVTAFNTGWQFKKGPFATDPMRAASQWDGKWETVEIPHTWNAMDMQVQSGSFYEGAGYYRKTQFFPHDLEGKRVFLRFEGVGACAEVYVNGKLAGTHKGGYSAFACEIGTALKLGAENEIIVKADNKARPDVIPVNQNLFGVYGGIYRPVWLIVTEQNNITVTDCASPGVYITQKDVSKKSADITVKVKLDNAGLQPAAVTLENTIYTQEGQKVGTHSRSFDLSPQGTQTYLSTFKLKNPHLWQGRKDPYLYKVVCRLMADGKVIDEVVQPLGVRKYEIVAGKGFFLNGEKYSMYGVTRHQDWWGLGSALKNEHHDFDLAAIMDVGATTVRFAHYQQSDYLYSRCDTLGLIIWAEIPCVNRVTGYETENAQSQLRELIRQSFNHPSIYVWGLHNEVYQPHEYTAALTRSLHDLAKTEDPDRYTVSVNGYGHMDHPVNLNADIQGMNRYFGWYEKKIQDIKPWVEQLEKDYPYQKLMLTEYGADANLAHQTEYLGDALNWGKPFYPETFQTKTHEYQWSIIKDHPYIIASYLWNMFDFAVPMWTRGGVPARNMKGLITFDRKTKKDSYFWYKANWSEEPVLYLTQRRNADREKRTTAVTVYSNIGTPKVYLNGQELSGIRNGYTDVHYVFDNVSLADGKNILKAVVSTKGKEYTDEIEWNYSGEKNREIDSYENKNEHSGEGHHHHHH” the entry was “soluble”. As for “MSLATARTYLASLTVATEDRTGYDRDLFPHWITQSGTCNTRETILKRDGTNVVTDSSCAATSGSWYSPYDGATWSASSDVDIDHMVPLAEAWDSGADSWTTSRRQSFANDLTRPQLLAVTDNVNQSKGDQDPATWMPSRSAYRCTYVRAWVQVKYYYDLSVDSAEKSAMQGYLANCEGHHHHHH”, the “soluble on expression in E. coli” value is recorded as “not soluble”.

In the case of “MSLATIKDVAQRAGVSPSTASRAMHGSKIISKPTRDKVIKAARELNYAPDFNAQNLATKASNTIGVVLPVDHHEIFSNPFFLEMIRGINEVCSKNGAMTTLATGISSDELVHNIDVMIAQGHIKTFILLYSEKNDPVVERLKQFDVQYVVIGKPYQDVNKTSYVDNDNIQAGTDAAQYLIDHGHRRIGFLYSDLSRMVQSDRMLGYQRVMMQNQLPNIMLEERFETHAAGVKTLHKFFEQYPDVTGFVAVDDMLALKLQQVLHNDPNWKVKQFSLIGFNNSIFSDLAHPMLTSIAVFPQRLGEEAAKIAMADHPADELSTAVIVPHQIVKRHSVHQIKSEGHHHHHH”, the “soluble on expression in E. coli” value was “soluble”. For “MSLAVFAARKWKYNEDKMMTIVRIDAEARWSDVVIHNNTLYYTGVPENLDADAFEQTANTLAQIDAVLEKQGSNKSSILDATIFLADKNDFAAMNKAWDAWVVAGHAPVRCTVQAGLMNPKYKVEIKIVAAVEGHHHHHH”, the “soluble on expression in E. coli” value is recorded as “soluble”.

In the case of “MSLAYQSEYALENEMMNQLEQLGYERVTIRDNKQLLDNFRTILNERHADKLEGNPLTDKEFQRLLTMIDGKSIFESARILRDKLPLRRDDESEIYLSFLDTKSWCKNKFQVTNQVSVEDTYKARYDVTILINGLPLVQVELKRRGIDINEAFNQVKRYRKQNYTGLFRYIQMFIISNGVETRYFSNNDSELLKSHMFYWSDKQNNRINTLQSFAESFMRPCQLAKMISEGHHHHHH”, the “soluble on expression in E. coli” value is on record as “soluble”.
